Measured values published in publication PMC11996680.

Target: T1, HOOK3-SNAPf labeled with Alexa-647 (human) (UniProt Q86VS8)
T1 sequence (chain, Alexa-647 on the SNAP tag): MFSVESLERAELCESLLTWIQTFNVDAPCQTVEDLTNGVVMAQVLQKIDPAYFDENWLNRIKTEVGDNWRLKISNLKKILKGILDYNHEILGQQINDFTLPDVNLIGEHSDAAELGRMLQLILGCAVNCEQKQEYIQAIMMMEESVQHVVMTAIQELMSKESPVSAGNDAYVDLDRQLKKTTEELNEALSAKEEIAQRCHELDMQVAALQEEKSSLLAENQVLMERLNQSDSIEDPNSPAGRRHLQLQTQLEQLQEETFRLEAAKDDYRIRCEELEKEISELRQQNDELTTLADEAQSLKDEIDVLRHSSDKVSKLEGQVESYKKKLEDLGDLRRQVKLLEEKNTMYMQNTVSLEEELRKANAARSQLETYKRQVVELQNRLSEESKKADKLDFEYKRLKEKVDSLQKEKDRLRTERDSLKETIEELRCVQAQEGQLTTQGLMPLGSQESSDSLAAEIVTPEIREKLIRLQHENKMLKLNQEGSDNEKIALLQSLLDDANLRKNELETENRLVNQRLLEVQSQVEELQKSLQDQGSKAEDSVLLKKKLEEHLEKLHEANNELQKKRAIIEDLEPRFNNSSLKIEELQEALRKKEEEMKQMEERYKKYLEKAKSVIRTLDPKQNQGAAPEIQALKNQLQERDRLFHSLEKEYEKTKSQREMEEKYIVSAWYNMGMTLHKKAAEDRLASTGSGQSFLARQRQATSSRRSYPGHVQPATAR

TMR–dynein landing rate on microtubules (TIRF), dynein–dynactin–HOOK3 with against without GST–KIF1C stalk–GFP: 2.6 fold
B1: GST–KIF1C^642–922–GFP (domain or fragment)
chain: EMEKRLQDLENQYRKEKEEADLLLEQQRLYADSDSGDDSDKRSCEESWRLISSLREQLPPTTVQTIVKRCGLPSSGKRRAPRRVYQIPQRRRLQGKDPRWATMADLKMQAVKEICYEVALADFRHGRAEIEALAALKMRELCRTYGKPDGPGDAWRAVARDVWDTVGEEEGGGAGSGGGSEEGARGAEVEDLRAHIDKLTGILQEVKLQNSSKDRELQALRDRMLRMERVIPLAQDHEDENEEGGEVPWAPPEGSEAAEEAAPSDRMPSARPPSPPLSSWE
